According to paper PMC4975651:

Legend:
Experiment in all cases: ITC
[1] = target: H3K4me0 peptide (ITC, Figures 5D and 5E) (UniProt P68431)
H3K4me0K14ac peptide = target: H3K4me0K14ac peptide
H3K4me0 (1-25aa) peptide = H3K4me0 (1-25aa) peptide (UniProt P68431)

Kd [1] [µM] | Kd (H3K4me0K14ac peptide) [µM] | fold increase of binding activity against ZMYND8-PBP (H3K4me0 (1-25aa) peptide) [fold] | Substance
15 |  |  | ZMYND8-PB (ITC) (domain or fragment)
7.2 | 1 |  | ZMYND8-PBP (93-426aa) (domain or fragment)
 |  | 11 | ZMYND8-PBP F109D (domain or fragment)
